Measured values reported in US11072647B2, “TGF-receptor II isoform, fusion peptide, methods of treatment and methods in vitro” (Onsejo Nacional DE Investigation Cientiticay Tecnica, priority 2013, dated 2021).

Test system: CPFX-treated juvenile rats
Conditions: rat, in vivo
Description: Thus, the effect of the TβII-SE isoform was analyzed either in CPFX-treated juvenile rats (24 days old) or untreated rats, by intra-articular injections of lentiviral vectors encoding a recombinant protein of the codon-optimized (co) TβRII-SE fused to the constant fragment (Fc) of the human immunoglobulin 1 (IgG1) (Lt.coTβRII-SE/Fc) or the enhanced green fluorescent protein (Lt.eGFP).
Male 24-day-old Wistar rats were housed under controlled conditions at 21±1° C. with 50%±5% relative humidity and a constant light-dark schedule (light, 8 a.m. to 8 p.m.). Food and tap water was provided ad libitum. The rats received ciprofloxacin hydrochloride on day 24 by oral administration of 200 mg/kg of body weight during 10 days. The animals were examined for clinical abnormalities including motility alterations and weighted during the treatment period.
On day 14 after ciprofloxacin treatment, 50 μl viral vectors were injected intra-articularly with either Lt.coTBRII-SE/Fc (2.35×10^6 transducing Units, TU) or Lt.eGFP (6×10^6 TU). Control animals without ciprofloxacin were treated in the same manner.

Substance: coTβRII-SE/Fc: fusion peptide of codon-optimized TβRII-SE and the human IgG1 Fc region, SEQ ID No. 6
- X-ray images of knees: radiolucent images with irregular borders in the femoral condyle
